Like-named read-outs stand apart in the source and are kept apart here.
B1: mouse EAG1 PAS protein (residues 1-137) (domain or fragment, UniProt Q60603 1-137, looked up)
chain: MTMAGGRRGLVAPQNTFLENIVRRSNDTNFVLGNAQIVDWPIVYSNDGFCKLSGYHRAEVMQKSSACSFMYGELTDKDTVEKVRQTFENYEMNSFEILMYKKNRTPVWFFVKIAPIRNEQDKVVLFLCTFSDITAFK
B2: fluorescein-labeled mEAG1 PAS (F-PAS) (domain or fragment, mouse, UniProt Q60603 1-137, looked up)
chain: B1 chain
modifications: fluorescein (fluorescein 5-maleimide) on accessible cysteine residues; fluorescein to protein molar ratio typically 3 or 4
B3: mouse CNBh domain (residues 552-724) (domain or fragment, UniProt Q60603 552-724, looked up)
chain: TEKVLQICPKDMRADICVHLNRKVFKEHPAFRLASDGCLRALAMEFQTVHCAPGDLIYHAGESVDSLCFVVSGSLEVIQDDEVVAILGKGDVFGDVFWKEATLAQSCANVRALTYCDLHVIKRDALQKVLEFYTAFSHSFSRNLILTYNLRKRIVFRKISDVKREEEERMKRK

Columns and labels:
hERG PAS domain = hERG PAS domain (Homo sapiens, UniProt Q12809); experiment: Thermal shift assay; assay type: binding; settings: for Shift in Tm of hERG PAS protein: dose response, compound solubility issues limited this study
[1] = target: B3; experiment: ITC
[2] = target: B3; experiment: ITC; remark: listed apart in the source
[3] = target: B3; experiment: ITC; remark: listed apart in the source
[4] = target: B3; experiment: fluorescence polarisation
[5] = target: B3; experiment: fluorescence polarisation; remark: listed apart in the source
[6] = target: B3; experiment: fluorescence polarisation; remark: listed apart in the source
[7] = target: B3; experiment: fluorescence polarisation; remark: listed apart in the source
[8] = target: B3; experiment: fluorescence polarisation; remark: listed apart in the source
[9] = target: B1; experiment: ITC
[10] = target: B1; experiment: ITC; remark: listed apart in the source
[11] = target: B1; experiment: ITC; remark: listed apart in the source

Chain of hERG PAS domain (Q12809 1-135): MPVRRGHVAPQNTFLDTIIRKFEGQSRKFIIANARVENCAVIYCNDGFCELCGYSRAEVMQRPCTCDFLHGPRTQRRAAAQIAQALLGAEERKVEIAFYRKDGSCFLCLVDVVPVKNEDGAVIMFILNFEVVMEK

Molecule: Oc1ccc(C(c2ccc(O)cc2)(C(F)(F)F)C(F)(F)F)cc1 [Bisphenol AF]
- Decrease in Tm of hERG PAS protein (hERG PAS domain; human, 200 µM, pH 7.5): at least 4.5 °C

Molecule: CC(C)(c1ccc(O)cc1)c1ccc(O)cc1 [Bisphenol A]
- Shift in Tm of hERG PAS protein (hERG PAS domain): No shift

Molecule: Oc1ccc(Cc2ccc(O)cc2)cc1 [Bisphenol F]
- Shift in Tm of hERG PAS protein (hERG PAS domain): No shift

Molecule: CC(C)(C)c1cc(S)cc(C(C)(C)C)c1O [ST057196]
- Decrease in Tm of hERG PAS protein (hERG PAS domain; on addition of 50 µM of compound): more than 18 °C

Molecule: B1
- Kd [1]: 3300 nM
- Kd [2]: 1100 nM
- Kd [3]: 2100 ± 800 nM

Molecule: B2
- Kd [4]: 3600 ± 1200 nM
- Kd [5]: 2400 ± 670 nM
- Kd [6]: 1800 ± 560 nM
- Kd [7]: 2300 ± 930 nM
- Kd [8]: 3100 ± 1100 nM

Molecule: B3
- stoichiometry N [9]: 0.77
- stoichiometry N [10]: 1.2
- stoichiometry N [11]: 1.3 ± 0.27

Source: paper PMC5696618 (Journal of biomolecular screening, 2016)
